Experimental data reported in PMC10346447.

Target: AvrLm10B_like2‐RFP (Leptosphaeria maculans 'brassicae')
Test: FRET or BRET

FRET efficiency E: 32.1%
donor (GFP) mean fluorescence lifetime τ with the acceptor: 1.89 ns
Substance: AvrLm10A_like2‐GFP (natural protein)
